Legend:
[1] = target: T1, HEN1-KK69-70AA (Arabidopsis thaliana, UniProt Q9C5Q8 1-942, K69A;K70A); assay: EMSA
T1 sequence: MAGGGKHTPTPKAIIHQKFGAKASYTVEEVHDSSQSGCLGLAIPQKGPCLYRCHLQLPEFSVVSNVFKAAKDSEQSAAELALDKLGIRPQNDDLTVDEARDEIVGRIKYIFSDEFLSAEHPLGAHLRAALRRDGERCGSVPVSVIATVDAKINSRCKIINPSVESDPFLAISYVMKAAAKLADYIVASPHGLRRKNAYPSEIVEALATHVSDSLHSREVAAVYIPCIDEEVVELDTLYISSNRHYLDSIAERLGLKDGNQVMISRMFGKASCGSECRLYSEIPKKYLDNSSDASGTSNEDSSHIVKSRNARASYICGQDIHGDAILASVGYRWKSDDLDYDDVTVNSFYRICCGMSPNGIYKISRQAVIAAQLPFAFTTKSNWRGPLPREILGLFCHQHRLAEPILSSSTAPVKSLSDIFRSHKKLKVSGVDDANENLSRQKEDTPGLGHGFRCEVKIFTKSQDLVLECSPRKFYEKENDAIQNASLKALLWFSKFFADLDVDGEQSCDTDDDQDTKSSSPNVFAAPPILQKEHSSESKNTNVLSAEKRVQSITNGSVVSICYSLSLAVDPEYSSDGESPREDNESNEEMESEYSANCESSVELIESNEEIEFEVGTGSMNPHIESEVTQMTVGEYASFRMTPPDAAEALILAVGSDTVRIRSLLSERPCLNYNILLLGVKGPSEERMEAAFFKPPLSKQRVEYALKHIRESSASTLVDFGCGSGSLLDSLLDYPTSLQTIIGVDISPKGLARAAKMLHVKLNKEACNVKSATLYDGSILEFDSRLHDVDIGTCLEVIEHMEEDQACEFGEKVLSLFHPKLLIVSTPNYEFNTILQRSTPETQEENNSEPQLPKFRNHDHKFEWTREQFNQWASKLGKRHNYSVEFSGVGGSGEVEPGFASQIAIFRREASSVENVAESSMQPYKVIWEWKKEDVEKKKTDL

[2] = target: T2, HEN1-RHK389,397,477AAA (Arabidopsis thaliana, UniProt Q9C5Q8 1-942, R389A;H397A;K477A); assay: EMSA
T2 sequence: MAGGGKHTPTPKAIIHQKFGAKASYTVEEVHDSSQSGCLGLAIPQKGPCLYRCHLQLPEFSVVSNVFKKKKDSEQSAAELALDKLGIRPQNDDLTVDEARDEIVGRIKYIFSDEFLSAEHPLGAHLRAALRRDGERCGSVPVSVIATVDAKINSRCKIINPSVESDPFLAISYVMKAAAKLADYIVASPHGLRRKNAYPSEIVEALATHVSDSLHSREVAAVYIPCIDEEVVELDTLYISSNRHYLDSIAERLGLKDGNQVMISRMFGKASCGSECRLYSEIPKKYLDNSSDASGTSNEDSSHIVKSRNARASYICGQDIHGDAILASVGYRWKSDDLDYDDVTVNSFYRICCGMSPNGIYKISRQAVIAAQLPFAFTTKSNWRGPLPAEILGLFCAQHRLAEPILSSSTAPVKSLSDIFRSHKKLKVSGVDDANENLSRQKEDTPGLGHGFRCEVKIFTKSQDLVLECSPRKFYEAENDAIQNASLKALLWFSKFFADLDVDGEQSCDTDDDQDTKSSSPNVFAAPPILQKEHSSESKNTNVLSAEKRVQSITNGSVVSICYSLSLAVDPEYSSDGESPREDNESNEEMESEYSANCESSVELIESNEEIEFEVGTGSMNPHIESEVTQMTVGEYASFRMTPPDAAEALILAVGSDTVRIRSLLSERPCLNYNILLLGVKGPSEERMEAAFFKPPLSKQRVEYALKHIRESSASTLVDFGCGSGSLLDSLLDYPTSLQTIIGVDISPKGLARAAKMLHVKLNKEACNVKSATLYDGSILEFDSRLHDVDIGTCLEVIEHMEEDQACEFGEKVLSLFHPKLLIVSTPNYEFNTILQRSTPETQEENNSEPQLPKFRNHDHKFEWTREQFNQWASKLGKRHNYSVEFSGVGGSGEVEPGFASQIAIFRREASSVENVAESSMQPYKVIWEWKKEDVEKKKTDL

B1: miR173/miR173* (dsRNA)
RNA 1: UUCGCUUGCAGAGAGAAAUCAC
RNA 2: GAUUCUCUGUGUAAGCGAAAG
[1]
  binding result: no binding
[2]
  Kd: 302 ± 29 nM

— PMC4357707 (Nucleic Acids Research, 2015)
